Data as given in patent US20230374151A1 (GlaxoSmithKline, published 2023).
Several values for one entry are separate records, joined by “and”; a condition that tells them apart may be missing. Equal entries are not always repeated.

Tests used:
[1] = target: T1, STnMUC1 peptide, biotinylated; experiment: SPR (Biacore T200), STnMUC1 peptide on CAP chip, scFv as analyte
T1 construct: also called STn peptide; 35-1
Experimental: (§1) The CAP chip (from the Biotin CAPture kit) was docked into BIAcore T200 instrument to hydrate overnight, as per manufacturer instructions. When the chip is docked (for the first time or after storage), the surface of the sensor chip needs to be conditioned with 3×1 minute injections of Regeneration Solution (from the Biotin CAPture kit). Regeneration Solution was prepared by mixing 3 parts of Regeneration Stock 1 (8M Guanidine-HCl) with 1-part Regeneration Stock 2 (1M NaOH). Both the reference and active flow cells of the sensor chip were conditioned with 3×60 second injections of Regeneration Solution at a flow rate of 10 μl/min.
(§2) Biotin CAPture Reagent was captured onto the active and reference flow cells for 300 seconds at 2 μl/min. The biotinylated peptides were diluted in BIAcore Running Buffer (as described above) and captured onto the active flow cell only, at a flow rate of 10 μl/min to obtain the capture level calculated in the equation detailed above.

[2] = target: T2, TnMUC1 peptide (fully glycosylated), biotinylated; experiment: SPR (Biacore T200), peptide 36-2 on CAP chip, scFv as analyte, 1:1 fit; average
T2 construct: Two batches (36-2 and 65-1) of the same peptide; also called 36-2; 7-36-2
Experimental: as §2
(§3) The humanised anti-TnMUC1 scFv proteins were passed over the reference and active flow cells at 500, 125, 31.25, 7.8, 1.9, 0 nM for binding to TnMUC1 and MUC1 peptides with a 300 second association followed by a 900 seconds dissociation with BIAcore Running Buffer at a flow rate of 30 μl/min.
(§4) BIAcore T200 Evaluation Software v3.0 was used to analyse the data. The data obtained has been fitted to a 1:1 binding model with the Rmax parameter set to local. As this is a capture experiment, a local Rmax parameter would be truly reflective as the protein is recaptured every time and theoretically surface is slightly different at each recapture, possibly producing slightly different capture each time. Kinetic Parameters (KD, kd and kₐ) were calculated for all the humanised anti-TnMUC1 scFv proteins.

[3] = target: T2, TnMUC1 peptide (fully glycosylated), …; experiment: SPR (Biacore T200), peptide 36-2 on CAP chip, scFv as analyte, 1:1 fit; single run
Experimental: as §2, §3, §4

[4] = target: T3, MUC1 peptide (non-glycosylated), biotinylated (N-terminal Biotin-PEG2; C-terminal amide); experiment: SPR (Biacore T200): biotinylated peptide captured on CAP chip, scFv as analyte
T3 construct: also called 36-4; 7-36-4
T3 peptide: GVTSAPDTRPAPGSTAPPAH

[5] = target: T2, TnMUC1 peptide (fully glycosylated), …; experiment: SPR (Biacore T200), peptide 36-2 on CAP chip, scFv as analyte, 1:1 fit; average, restated in nM
Experimental: as §2, §3, §4

[6] = target: T1, STnMUC1 peptide, biotinylated; experiment: SPR (Biacore T200): biotinylated STnMUC1 peptide (35-1) captured on CAP chip, scFv as analyte
[7] = target: T1, STnMUC1 peptide, biotinylated; experiment: as above; remark: listed apart in the source
Experimental: as §1, §2

[8] = target: T4, TnMUC1 peptide 1 (partially glycosylated), biotinylated; experiment: SPR (Biacore T200): biotinylated TnMUC1 peptide 1 (96-1) captured on CAP chip, scFv as analyte
T4 construct: also called 96-1; 32A

[9] = target: T2, TnMUC1 peptide (fully glycosylated), …; experiment: SPR (Biacore T200): biotinylated TnMUC1 peptide batch 65-1 captured on CAP chip, scFv as analyte
[10] = target: T1, STnMUC1 peptide, biotinylated; experiment: SPR (Biacore T200): biotinylated STnMUC1 peptide (35-1) captured on CAP chip, scFv as analyte, 1:1 fit, average
[11] = target: T4, TnMUC1 peptide 1 (partially …); experiment: SPR (Biacore T200): biotinylated TnMUC1 peptide 1 (96-1) captured on CAP chip, scFv as analyte, 1:1 fit, average
Experimental: as §2, §3, §4

[12] = target: T2, TnMUC1 peptide (fully glycosylated), …; experiment: SPR (Biacore T200): biotinylated TnMUC1 peptide batch 65-1 captured on CAP chip, scFv as analyte, 1:1 fit, average
Experimental: as §2, §3, §4

- fold lower affinity than the murine 5E5 scFv protein [1]: ~10 fold
- Kd [2]: 174 nM
- koff [2]: 0.00653 s⁻¹
- kon [2]: 37800 M⁻¹ s⁻¹
- Kd [3]: 166 nM and 181 nM
- koff [3]: 0.00654 s⁻¹ and 0.00652 s⁻¹
- kon [3]: 39500 M⁻¹ s⁻¹ and 36100 M⁻¹ s⁻¹
- binding result [4]: no binding
- Kd [5]: 174 nM
- Kd [6]: 445 nM
- Kd [7]: 445 nM
- koff [7]: 0.00117 s⁻¹
- kon [7]: 2630 M⁻¹ s⁻¹
- Kd [8]: 231 nM
- koff [8]: 0.00635 s⁻¹
- kon [8]: 27500 M⁻¹ s⁻¹
- Kd [9]: 195 nM
- koff [9]: 0.00633 s⁻¹
- kon [9]: 32600 M⁻¹ s⁻¹
- Kd [10]: 445 nM
- koff [10]: 0.00117 s⁻¹
- kon [10]: 2630 M⁻¹ s⁻¹
- Kd [11]: 231 nM
- koff [11]: 0.00635 s⁻¹
- kon [11]: 27500 M⁻¹ s⁻¹
- Kd [12]: 195 nM
- koff [12]: 0.00633 s⁻¹
- kon [12]: 32600 M⁻¹ s⁻¹
B1: humanised anti-TnMUC1 scFv protein 13P16 (97A), L2-H3 (scFv)
scFv: DIVMTQSPDSLAVSLGERATINCKSSQSLLNSGDQKNYLTWYQQKPGQPPKLLIFWASTRESGVPDRFSGSGSGTDFTLTISSLQAEDVAVYYCQNDYSYPLTFGQGTKLEIKGGGGSGGGGSGGGGSGGGGSQVQLVQSGAEVKKPGSSVKVSCKASGYTFTDHAIHWVRQAPGQGLEWMGHFSPGNTDIKYNDKFKGRVTITADKSTSTAYMELSSLRSEDTAVYYCKTSTFFFDYWGQGTTVTVSSAAAHHHHHH
notes: Supernatant of construct 6D16 in the Octet assay; purified 13P16 elsewhere. scFv of CAR MB024; also called 6D16
